Assay results reported in US20240026407A1, “MODIFICATION OF SAPONINS” (GLAXOSMITHKLINE BIOLOGICALS SA, priority 2020, published 2024).

B1: 828 (protein, listed as Bifidobacterium pseudocatenulatum)
chain: MSEKTYPSINDLTLEEKASLTSGGDAWHLQGVEAKGIPGYMITDGPHGLRKSNSATTGEVDLNNCVPATCFPPAAGLSSSWNPELIHQVGEAMAEECIQEKVAVILGPGVNIKRNPLGGRCFEYWSEDPYLAGHEAIGIVAGVQSKGVGTSLKHFAANNQETDRLRISANISQRALREIYFPAFEHIVKEAQPWTIMCAYNCINGVHAAQDHWLLTDVLRDEWGFQGIVMSDWGADHDRVASLNAGLNLEMPPSYTDDQIVYAARDGRIQPAQLDHMAQGMIDLVNKTRAAMSIENYRFDIEAHDEVAHQAAIESMVLLKNDDAILPIAGDAKVTVIGEFARTPRYQGGGSSHITPTKMTSFLDTLTERGVDAKFAPGFTLDLEPADPALEAEAVDAAKGADVVLMFLGLPEAAESEGFDRETLDMPAKQIALLEAVAAENKNVVVVLSNGSVVTVAPWAKNAKGILESWLLGQSGGPALADVLFGKVSPSGKLAQTIPFDINDDPSTINWPGEEGHVDYGEGVFVGYRYYDTYNKAVDYPFGFGLSYATFEVSDVKAVKTGACTASVSAVVKNTSNVDAAETVQVYVAPGKADVVRPKHELKGFKKVFLKAGESAEVSFELDDRAFAYWSERFNDWHVESGEYTIEVGTSSRDIAGSAVVELDGDGKAQPLTEWSNFMEWRKDPLGSKVLEILRAEGEAGRMPVVPDNDMTRLFLDSMPINSMSVLMGADGKQIFEYMLEKYAELTK
B2: 870 (protein)
chain: MTEQTHTKAKDLDLQEEASLTSGSDSWHLQGLPDKGYEGYMITDGPYGLRKATGSDVYGSVPATCFPPTAGLASSWNPDLTYQVGQAMGEECIQEKVAVILGPGINIKRSPLGGRNFEFYSEDPVLAGHEAAGLVEGVQSKGVGTSLKHFAANNQETDRLRVSSDVDVRTLREIYLPAFEYVVKNAKPWTIMCAYNKVNGVFSSENRWLLTDVLRGEWGYQGMVMSDWGAVHNRVDALQAGLNLEMPPSRTDDQVVQAVQAGKLDKEQLDRMAQGILDLIDKARPAMSQQGYRYDVQEHNDMARRAAQESIVLLRNEDRILPLDPQKKVAVIGEFARTPRYQGGGSSHITPTEVSSALDGFKEAGMNVDFAPGFTLDEKEQDPALTRQALEVARGADTVVLFLGLPEYAESEGFDRTSMDLPEKQVALLKAVSEVNDRVVAVLSNGAVVTVADWMDKTKGLLETWLLGQEGGRAVVDVLTGAATPSGHLPETIPVRLEDNPTITSFPGEEGHSRYGEGVYVGYRYYDTFQRPVAFPFGFGLSYADFALDQVAVTKTGASSARVEVTVTNTSQVDGAQTVQVYVAPCASRVNRPSHELKAFTKVFLKAGQSSRVSMDLTERDFAYWSTAMDAWHVEAGTYRIQVGTSSRDLVAEEDLQVDGDGRFIPLNAESTMAEWRENSIGGPIMRDRIDQDGIPLPDDPNTAQLFDTMPLASVITLSGGDGNGIVADMVDRYHQALKQQGRDS
modifications: Bifidobacterium asteroides
B3: 844 (protein, listed as Paenarthrobacter aurescens)
chain: MNPTLSAAVTAPSAGTQDAEAEIRDLAQSLTLEQQVQLLTGADVWSTHAIPEIGLSRVVMSDGPAGVRGEDFDERHDSVSLPSSSALSATWSVETARNYGQVLGQEARRKGVHAVLGPTINLHRSPLGGRHFECMSEDPRLTATMAAGYVAGVQSMGVGATPKHYLANEAETERFTADSVVDERPLRELYLAAFEDAITEARAWLVMSSYNSINGTTASENKLLETPLSTEWGFDGVVVSDWTGVRSIDAANAHQDLEMPGPVGHWGPKLLAAVNEGRVSREAILEKVTRILRLAARVGSLEGFEPAVTHLPTELNGAAVAREVAVRGAVLVRNKGLLPLDAKALGSVAVIGHNADEARTQGGGSATVMPKYTVSPLEGLRKALPEGVKVTYARGAKVAEGIQAFPRTSLHNPVSNVPGIRVTFLAEDGTEISGEDRLASHLIWFGIGIPDGAASIRMEADWTAETAGVHHLGVGTVGRIRFVLDGTEVFNSELEDDTEVLGAALFDPPKTVHAIDTTAGQSIRIEAEYQLPKEQVIPFTAILLGEETVVAEPQAEIDAAVEAARASDVAVVVVGTNAAIESEGFDRKDLDLPGYQNQLVKAVAAANPRTVVVVNSGSPVLMPWLDTVDAVLLGWFGGQEFGSAVADILLGVEEPGGRLPTTWPSALDDVPVLNTTPTDGKVVYSEGIHIGYRAWLKQQAEGGAAPALPFGFGLGYTTFEFGKAHAPQAVTAGKDLVVHVPVKNTGTRTGREVVQVYVERTESAVERPVRWLAGYAGAHLAPAGTESVEIRIPAKAFAHYDGGWQFEQGTFRLLVGRHAADDFQSLDIELR
B4: 873 (protein, listed as Bifidobacterium longum)
chain: MSESTYPSVKDLTLEEKASLTSGGDAWHLQGVEAKGIPGYMITDGPHGLRKSLTSSTGETDLDNSVPATCFPPAAGLSSSWNPELIHKVGEAMAEECIQEKVAVILGPGVNIKRNPLGGRCFEYWSEDPYLAGHEAIGIVAGVQSKGVGTSLKHFAANNQETDRLRVDARISQRALREIYLPAFEHIVKTAQPWTIMCSYNRINGVHSAQNHWLLTDVLRDEWGFEGIVMSDWGADHDRVASLNAGLNLEMPPSYTDDQIVYAARDGRIAPAQLDRMAQGMIDLINKARAAMSIDGYRFDVDAHDEVAHQAAIESIVLLKNDDAILPLNADPAAARKIAVIGEFARTPRYQGGGSSHITPTKMTSFLDTLAERGIKADFAPGFTLDMESADPALESEAVETAKNADVVLMFLGLPEAAESEGFDRDTLDMPAKQIALLEQVAAANKNVVVVLSNGSVITVAPWAKNAKGILESWLLGQSGGPALADVIFGQVSPSGKLAQSIPLDINDDPSMLNWPGEEGHVDYGEGVFVGYRYYDTYGKVVDYPFGYGLSYATFEIADVAAAKTGANTATVTATVTNTSDVDASETVQVYVAPGKADVARPKHELKGFTKVFLKAGESKTVTIDLDERAFAYWSEKYNDWHVESGEYAIEVGTSSRDIAETVTVALDGDGKTQPLTEWSTYGEWEADPFGAKIVAAVAAAGEAGELLKLPDNAMMRMFLNSMPINSLPTLLGEGGKKIAQFMLDEYAKLSK
B5: 829 (protein, listed as Pseudonocardia sp.)
chain: MATVDEDLLTTLIARLDLDAKVRLLTGADFWSTPAEPAIGLRRMVLSDGPSGVRGESFDERSPSLSLPSSTALGATWDPELARRYGSTLGAEARRQHADVVLGPTINLHRTPFGGRHFEALSEDPLLTGELAAAYVEGLQAHGVAATPKHYVANDAESERFTVDNVVGERALHELYLAAFEPAVTRGGAWAVMSAYNAVNGATMSENPLLTEPLTGEWGFDGLVMSDWGAVRTTVASARAEQHLVMPGPVSTWGERLVAAVRGGEVDESVVDGKLRRLLRLAARVGALDGGPTPPPAPAPGDGATVARELAAAGSVLVRNTGELPWDASALGTVAVLGHNAALARTQGGGSATVRPAAVVAPLDGLRTALGGDRVRYRLGAQVAEGVQPFDPETVTDPVTGEPGLRAVFRAADGTALRSEHRLGASLIWMSGEIPGGAETVEVSTRWSPEPGAHRIGAAAVGHVTVSADGATVLDTEAVLTGDEGPGAAIFEAPSATAEITTDAPVDLVFRFRPSGGEAGMALFALTVGTETVVADPRAEVAAAASLAADCDVAVVVVGTNDRIESEGFDRTSLALPGHQDDLVRAVAAANPRTVVVVNSGAPVLLPWRDEVAAVLLGWFGGERFGDAVADVLLGHAEPGGRLPTTWPATGEERSVLSGRPTDGVLRYDEGVHLGHRNWLRHGETPAYPFGHGLGYTTWTLDDAVAGPWSADGVAVTVTLTNTGDRAGRQVVQAYLSRTGSDVERPARWLAGWAVVDAAPGTTTATVTVSRRAFRHRAGGVWATEPGTYELHLGFSVADTPLHATVEVVGEG
B6: 808 (protein, listed as Microbacterium lemovicicum)
chain: MTTESTVATSDATSHLLPLLAQLTLAQKAAFVQGADFWATVPLPEIGVRSMTLSDGPAGVRGPRWDEREPSLNLPSGSALAASWDIDLAYRYGAAAASEARRKGVDVVLGPTINLHRSPLGGRHFECFSEDPELTAELGAAYVRGLQDNGVAATPKHYVANDSETDRFTVDVRVDERALRELYLAPFERAVEAGTWSVMSAYNSVDGVTMTENDLLETPLNSEWGFDGVVVSDWTAVRSLDAVAASQDLAMPGPAPAWADLVAAVEDGRVSEADLDRKVLRMLLLAERVGALEGAPGIEPAPVDGVAFTREAAVEGTVLLTNDGTLPLDAAALRSVAVIGHNALEARTQGGGSATVLPEHVVSPLEGLRTALPDAAVSYEIGAVVQEGVAELPLEQLQNTVTGEPGLRVSFFDADGLELFTEDRRSTALVWFGGDAPIAASSSVVLETVYTPAETGEIQLGFAGANPGRVSIDGVEVLAETPLIEGTDLGAAFLNPPSSTAAVRAEAGRPLRLRAEFALSSGGPLAGALSVTLGIAPETTDPDELIARAAAAAASADVAVVVVGTNSKVESEGYDRVDLDLPGRQDDLVRAVAATGTPTIVVVNAGSPVVLPWAGEVAAVVQGYFGGQEFGSAVAAVLTGAAEPGGRLPTTWPAALADVPVTDVAPQDGVLAYTEGIHIGYRAWLRADAAPAFPFGHGLGYTTWSWGAVQRDGDALDVTLANTGARAGKQVVQVYAERADSTVERPVRWLVGFATVRAEAGQTVTATIPLPARRFAHWSDGWQVEGGAFTLRAGASVADLPLTMEWSIGD

What was measured:
Format in all cases: biochemical, Quillaja saponaria
[1] = Experiment 5-1: screening of additional glucosidases for deglycosylation with purified QS-18 (0.04 mg/ml) at pH 7.5 and 30 deg C; settings: pH 7.5, 30 degrees C, 18 hours, LCMS/MS
Method: The 94 additional genes, together with positive control (DNA encoding SEQ ID No. 262) and negative control, were transformed, expressed, lysed and reacted in the same manner as described above for Experiment 4-1, except the reaction was incubated at 30 degrees C. for 18 hours.
Samples were analysed by LCMS/MS according to the procedure in Experiment 4-1.

[2] = Experiment 5-2: screening of additional glucosidases for deglycosylation with QS-18 in crude bark extract (80%) at pH 6 and 35 deg C; settings: CBE 80%, pH 6, 35 deg C, 18 hours; UV HPLC
How it was run: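 Clarified glucosidase lysate (prepared at pH 6) was incubated with pH 6-adjusted crude bark extract at 35 deg C with shaking for 18 hours. Reactions were quenched with MeCN containing 2% AcOH and hexanophenone, then analysed by UV HPLC.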

[3] = Experiment 5-3: screening of additional glucosidases for deglycosylation with QS-18 in treated bark extract (80%) at pH 6 and 35 deg C; settings: TBE 80% (QS-21 approx. 4 g/L), pH 6, 35 deg C; UV HPLC
Method: Experiment 5-1 was repeated, replacing CBE with Treated Bark Extract (TBE) at pH 6. TBE was prepared from CBE by PVPP treatment and concentration, to provide TBE with a QS-21 concentration of approximately 4 g/L. TBE was adjusted to pH 6 by dropwise addition of 2M NaOH with stirring.

Row | Molecule | Experiment 5-1 % conv [1] [%] | Experiment 5-2 % conv [2] [%] | Experiment 5-3 % conv [3] [%]
1 | B1 | 50.7 | <0.5 | <0.5
2 | B2 | 49.7 | <0.5 | <0.5
3 | B3 | 43.6 | <0.5 | <0.5
4 | B4 | 43.9 | <0.5 | <0.5
5 | B5 | 52.3 | <0.5 | <0.5
6 | B6 | 52.0 | <0.5 | <0.5
